Data reported in IntAct's records for PubMed 23932592.

B1: Syntaxin-10 (Homo sapiens), O60499-1 (parent)
chain: MSLEDPFFVVRGEVQKAVNTARGLYQRWCELLQESAAVGREELDWTTNELRNGLRSIEWDLEDLEETIGIVEANPGKFKLPAGDLQERKVFVERMREAVQEMKDHMVSPTAVAFLERNNREILAGKPAAQKSPSDLLDASAVSATSRYIEEQQATQQLIMDEQDQQLEMVSGSIQVLKHMSGRVGEELDEQGIMLDAFAQEMDHTQSRMDGVLRKLAKVSHMTSDRRQWCAIAVLVGVLLLVLILLFSL
partner: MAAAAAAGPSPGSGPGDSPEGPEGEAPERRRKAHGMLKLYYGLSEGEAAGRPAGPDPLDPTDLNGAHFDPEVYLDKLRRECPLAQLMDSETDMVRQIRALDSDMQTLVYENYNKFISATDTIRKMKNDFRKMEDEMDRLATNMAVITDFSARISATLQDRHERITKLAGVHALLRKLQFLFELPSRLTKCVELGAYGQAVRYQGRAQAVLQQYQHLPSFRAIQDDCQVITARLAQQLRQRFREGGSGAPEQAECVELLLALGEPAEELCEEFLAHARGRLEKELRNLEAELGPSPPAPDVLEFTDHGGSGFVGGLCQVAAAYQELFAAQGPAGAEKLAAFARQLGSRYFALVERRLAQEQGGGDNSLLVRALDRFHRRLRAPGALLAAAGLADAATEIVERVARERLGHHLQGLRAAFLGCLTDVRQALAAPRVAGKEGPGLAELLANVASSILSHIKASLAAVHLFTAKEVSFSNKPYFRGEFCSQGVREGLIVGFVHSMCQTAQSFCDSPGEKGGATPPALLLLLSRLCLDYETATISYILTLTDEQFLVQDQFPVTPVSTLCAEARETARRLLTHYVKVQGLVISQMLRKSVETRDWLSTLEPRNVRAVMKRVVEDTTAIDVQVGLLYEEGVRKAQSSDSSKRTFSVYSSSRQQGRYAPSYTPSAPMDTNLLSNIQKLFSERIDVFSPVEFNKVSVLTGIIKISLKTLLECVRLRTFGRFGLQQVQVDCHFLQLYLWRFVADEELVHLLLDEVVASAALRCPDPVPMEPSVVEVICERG
B2: Syntaxin-6 (Homo sapiens), O43752 (parent)
chain: MSMEDPFFVVKGEVQKAVNTAQGLFQRWTELLQDPSTATREEIDWTTNELRNNLRSIEWDLEDLDETISIVEANPRKFNLDATELSIRKAFITSTRQVVRDMKDQMSTSSVQALAERKNRQALLGDSGSQNWSTGTTDKYGRLDRELQRANSHFIEEQQAQQQLIVEQQDEQLELVSGSIGVLKNMSQRIGGELEEQAVMLEDFSHELESTQSRLDNVMKKLAKVSHMTSDRRQWCAIAILFAVLLVVLILFLVL
partner: B1 partner
B3: Vacuolar protein sorting-associated protein 51 homolog (Homo sapiens), Q9UID3-1 (parent)
chain: B1 partner
partner: B2 chain
B4: Vacuolar protein sorting-associated protein 51 homolog (Homo sapiens), Q9UID3-1 (parent)
chain: B1 partner
partner: B1 chain

Variants of: B1
Conditions: with VPS51, Q9UID3-1

Row | Variant | effect of a mutation on the interaction
1 | P6A | disrupting interaction strength
2 | D5L | disrupting interaction strength
3 | R88M | disrupting interaction strength
4 | F7L | disrupting interaction strength

Variants of: B2
Conditions: with VPS51, Q9UID3-1

Row | Variant | effect of a mutation on the interaction
5 | R88M | disrupting interaction strength
6 | P6A | disrupting interaction strength
7 | F7L | disrupting interaction strength
8 | D5L | disrupting interaction strength

Variants of: B3
Conditions: with stx6_human STX6, O43752

Row | Variant | effect of a mutation on the interaction
9 | Y41A | disrupting interaction strength
10 | Y40A | disrupting interaction strength
11 | L37A | disrupting interaction strength

Variants of: B3
Conditions: with stx6_human STX6, O43752
Remark: another data set of the same source

Row | Variant | effect of a mutation on the interaction
12 | Y40A;Y41A | disrupting interaction strength

Variants of: B4
Conditions: with STX10, O60499-1

Row | Variant | effect of a mutation on the interaction
13 | L37A | disrupting interaction strength
14 | Y40A | disrupting interaction strength
15 | Y41A | disrupting interaction strength

Variants of: B4
Conditions: with STX10, O60499-1
Remark: another data set of the same source

Row | Variant | effect of a mutation on the interaction
16 | Y40A;Y41A | disrupting interaction strength
